Source: the supplement of paper PMC9170038

Experiments:
MS2 coat protein [1] = assay: apparent KD of MS2 coat protein, switch ON state; designed switch direction (-1 OFF switch, 1 ON switch): 1; higher = weaker reporter binding; details: FMN input: 0 or 200 uM; Eterna round: R93 (includes R88 designs)
Outline: (§1)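 With or without constant ligand, designed RNA switches in 100 mM Tris-HCl pH 7.5, 80 mM KCl and 4 mM MgCl2 were titrated with SNAP-549-labelled MS2 coat protein. Concentrations went up in twofold steps from 0.7 or 1.5 nM to 3 µM. The switches had been transcribed on-chip from Illumina sequencing clusters, and apparent KD is the per-design median of normalised cluster binding-curve fits.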

MS2 coat protein [2] = assay: apparent KD of MS2 coat protein, switch OFF state (with FMN for OFF switches, without FMN for ON switches); designed switch direction (-1 OFF switch, 1 ON switch): 1; higher = weaker reporter binding; details: FMN input: 0 or 200 uM; Eterna round: R93 (includes R88 designs)
Outline: as §1

Sequence | apparent KD of MS2 coat protein (MS2 coat protein [1]) [nM] | apparent KD of MS2 coat protein (MS2 coat protein [2]) [nM]
AUUUUACAUGAGGAUCACCCAUGUUUUGGUGGAUCAGGAUAUAGAUUGAAUGAGUUUUAGCUAGAAGGGAUAUAUA [JR_SS001_Sub506] | 111 | 110
UAAAAACAUGAGGAUCACCCAUGUGAGAACAUGGGAGGAUAUACGAGGACGAAAGUCAAAGUAGAAGGCCUAAAAG [Garnet 84] | 272 | 101
GGAGCCGACACUGAGGAUAUUCAUAUUAAAACAUGAGGAUCACCCAUGUAGGCCAGAAGGCCUUGGGAGAAGGCAGGCCGGCUCG [Inxebi] | 19.3 | 256
GUAUAUAUGAGGUAGGAUAUCCAAAAUAAAACAUGAGGAUCACCCAUGUAAAUAAAUAAUAAAUGGGAGAAGGACCACAUAUAUAC [Ex6 sub 3] | 16.2 | 34.2
AAAAAACAUGAGGAUCACCCAUGUAUGAUAACAUCAGGAUAUUGGCUUGACUAUGUCUUACAAGAAGGGAUGAAAA [Same State 1.3e (Same State 1 - Omei 2 )] | 28.3 | 48.6
AACAAUCUAUCUGAGGAUAUGUGUCAAAAGACAUGAGGAUCACCCAUGUAAAAACAUGAAAAGACACAGAAGGCAGAUAGAUUGA [SS2: 1153] | 21.4 | 44.2
AAAAGACAUGAGGAUCACCCAUGUAAAAACGUAGGAGGAUAUGUCGUGAAAAAAGACUUGACAGAAGGCCUGUGUC [SS1 - 35] | 25.9 | 39
AAAAAACAUGAGGAUCACCCAUGUCCUCGGACGUGAGGAUAUGUACAGACUUCGGUCUGUACAGAAGGCACGUAAA [SS1 - 1042] | 492 | 402
AUAGAACAUGAGGAUCACCCAUGUAAAAAAGCAUGAGGAUAUAUAAGUAAAUAAAAUAAGAUAGAAGGCAUGAUAA [JR_SS001_Sub1701] | 52 | 91.4
GGAAGACAUGAGGAUCACCCAUGUGGGAAUAUGGGAGGAUAUACAAAGACGAGAGUCAGAGUAGAAGGCCUAGGAC [salish99-ss1-102] | 32.8 | 105
AGGAAACAUGAGGAUCACCCAUGUAAGAUAAACUUAGGAUAUGCGAAAAGAAACAAAGAAGCAGAAGGAGGGAGAA [75%, Ex5 sub 1, 2] | 16.5 | 33
UGGAGACAUGAGGAUCACCCAUGUGAGAAGAGGCGAGGAUAUCGAAAGAAAGAAGAGAAACGAGAAGGCGCGAGAG [salish99-SS1-041] | 42.7 | 51.2
AAAAAACAUGAGGAUCACCCAUGUGAGAACAAGGGAGGAUAUACGAAGACGAAAGUCGAAGUAGAAGGCCUAAAAA [Garnet 81] | 23.3 | 46.6
AAAUAACAUGAGGAUCACCCAUGUUACAACAUUACAGGAUAUGUGGGUGAAAAUAGCAUGACAGAAGGGUACUGUA [SameState1 Malc#34] | 479 | 393
AACAAACAUGAGGAUCACCCAUGUCAAACAUACCAAGGAUAUGGGAGACGAGACUCGUCACCAGAAGGUGGAAAUU [Maatce] | 106 | 123
AAUAUAUUAAGUGAGGAUAUCGAGGAAAAAACAUGAGGAUCACCCAUGUGGGAAACAUGGUAGGGUGAGAAGGCACUUAAUAUAU [Samwise Clockwise 24 - Jieux - Same State 2] | 132 | 572
AAAAUAUAAAGAGAGGAUAUCCAAAGAACCACAUGAGGAUCACCCAUGUAAAGAAAGAAUAAGUGGGAGAAGGCUCAAAUAAUAA [Designing denovo 24] | 27.5 | 99.8
GGAAGGAAGAGAGAGGAUAUCCAAAGGAAAACAUGAGGAUCACCCAUGUAAAAGGUAGGAAAUUGGGAGAAGGCUCAAAAGAGAG [salish99-ss2-036] | 18.6 | 14
CACCCGUGUAUGAAGGAUAUGUAGACCCUGACAUGAGGAUCACCCAUGUAACUGUGGGUCCCAUCGCAGAAGGUCGAGACACGGG [Ribitite] | 22.4 | 180
CAGCGCUGUCGAGAGGAUAUGCGGUGAUGGACAUGAGGAUCACCCAUGUAAGCGAUAGCAUUACGGCAGAAGGCUCUGCAGCUGC [Riaranzaes] | 18.7 | 69.6
GGAAGACAUGAGGAUCACCCAUGUGGGAAUAUGGGAGGAUAUACAAAGACGAGAGUCAGAGUAGAAGGCCUAGGCC [salish99-ss1-103(!)] | 54.3 | 126
AAAAUAAAAUAAAAGGAUAUAAAGAUAUAUACAUGAGGAUCACCCAUGUAUAUAUCAAUAAAAUAAAAGAAGGAAUAAAAAUAAA [SS2 510: MS2 10] | 14.8 | 18

Sequence | apparent KD of MS2 coat protein (MS2 coat protein [1]) [nM] | apparent KD of MS2 coat protein (MS2 coat protein [2]) [nM]
GCAAAACAUGAGGAUCACCCAUGUGAAAAGAAUGUAGGAUAUGGGCUCAUAAAUAGCAGCCCAGAAGGGCGAAGAA [Onmace] | 29.6 | 26.2
AUAAAACAUGAGGAUCACCCAUGUAGACAUAUGGGAGGAUAUACUAGAUCGAAAGAUCUAGUAGAAGGUCUUUAAA [JL Mod of Eli 9] | 297 | 257
AUAAGACAUGAGGAUCACCCAUGUAUAAGAGCAUGAGGAUAUAUGAAAAGUAAUAGGAGAAUAGAAGGCAUAGUUG [JR_SS001_Sub1220] | 80.7 | 92.4
GGUACGGCUAGUCAGGAUAUCAGGCGUAAGACAUGAGGAUCACCCAUGUCCUAAGAACAGGUAACUGAGAAGGGACAGGGCGUCC [JR_SS002_Sub414] | 28.8 | 63.1
GACUAACAUGAGGAUCACCCAUGUAUUCAAACAUGAGGAUAUAUAACACAUCAUCGACGGAUAGAAGGCAUAGAUA [JR_SS001_Sub1207] | 81.1 | 71.7
AAAAGACAUGAGGAUCACCCAUGUCAAGACGUAGGAGGAUAUGUCUUGAAAAAAGACUUGACAGAAGGCCUGUGUC [SS1 - 55] | 14.9 | 18.1
AAAAAACAUGAGGAUCACCCAUGUAAAAAAAACACAGGAUAUCCAAAAAAAAAAAAAAAAGGAGAAGGGUGAAAAA [Nob - Jieux - Same State 1] | 22 | 48.3
ACAAAUAAAAGAGAGGAUAUCCAAAAGAAAACAUGAGGAUCACCCAUGUGAAAGAAAAUAAAAUGGGAGAAGGCUCAGAAUAAUA [Topaz 30] | 16.4 | 83.2
AAGAAUUAAACGCAGGAUAUGUACCCACGUACAUGAGGAUCACCCAUGUGCCUAUAAGGGUCGAGGCAGAAGGGCGAUAUAGAAA [Reteriusge] | 15.8 | 81.2
GCGGUGUAGGUACAGGAUAUGUUGCUCGUAACAUGAGGAUCACCCAUGUACCUAUGAGAUUAAAUGCAGAAGGGUGCACACCACG [Zaalaes] | 21.5 | 2.41
AUGGUCAAGUGUGAGGAUAUCCAGGCUCCCACAUGAGGAUCACCCAUGUUUUAAAGAGCGUAAAGGGAGAAGGUACGAACGCCAC [Isorvere] | 15.4 | 21.9
AACAACAAUAUGAAGGAUAUCCACAACAAGACAUGAGGAUCACCCAUGUAAACAAAGAACAUACAGGAGAAGGUCAAGGGUGAAA [JR_SS002_Sub1203] | 56.2 | 39
CUAAUUGCAUAUUAGGAUAUACACUGGGUGACAUGAGGAUCACCCAUGUAAAAGCACACUCGGUAGUAGAAGGAGUGUGCAAGUC [Iserso] | 36 | 19.1
AAAAAAUAAAAAAAGGAUAUAAAUCCUAGAACAUGAGGAUCACCCAUGUACUAGGAAAAAAUAAAAAAGAAGGAAAAAUAAAAAA [SS2: MS2 19] | 18.1 | 17.3
AAAAUACAUGAGGAUCACCCAUGUGAAAAUAUGGAAGGAUAUCAUGGAAAAAAAAAAACAUGAGAAGGUCCAAAAA [SS! 1 MT 9] | 22 | 123
AGGAGACAUGAGGAUCACCCAUGUGAGAAGAGGCGAGGAUAUCGAAAGAAAGAAGAGAAACGAGAAGGCGCGAGCU [salish99-SS1-024] | 24.4 | 29.6
AAAAAAAAAGUAGAGGAUAUCCGAGUGGUAACAUGAGGAUCACCCAUGUGAAGAAAGGAACAUGAGGAGAAGGCUACAAAAAAAAA [Normal (18/17)] | 11.9 | 30.4
AAAAAAAAAGUAUAGGAUAUCCGAGUGGUAACAUGAGGAUCACCCAUGUGAAGAAAGGAAGAUGAGGAGAAGGAUACAAAAAAAAA [Mod of Mat of Nando] | 27.9 | 65.3
AAAUAAAUGACUAAGGAUAUAUCGAAGAAGACAUGAGGAUCACCCAUGUAAUAAUAAAAAGGGUGGUAGAAGGUAGUCAACAAAC [Mod 6 of Pariah 4 by Hyphema in Round 1] | 156 | 233
GAAGACGUAGGAUAGGAUAUGUGAAUAAUUACAUGAGGAUCACCCAUGUCCAUUUAUAUGGGAACAUAGAAGGGUUUUCGUUAUC [SameState2 Malc#9] | 341 | 281
AGGAAACAUGAGGAUCACCCAUGUAAAGAUGGGCGAGGAUAUCGAAAGAAAAGAAAGAAACGAGAAGGCGCAAAAG [Flamingo] | 43.7 | 240
AACAUACAUGAGGAUCACCCAUGUUUAUAAAAACAAGGAUAUAUAAGAACAAACAAACAAAUAGAAGGUGUAAAAA [Default title] | 23.4 | 17.2
